Measurements as given in the supplement of paper PMC10567573.

B1: STEAP1 (parent)
chain: WMLTRKQFGLLSFFFAVLHAIYSL
B2: ZBED2 (parent)
chain: FHLAPARAGHHPNQYATCRLCGRQ

Variants of: B1
Experiment: protein stability index of a GFP-peptide fusion (GPS, HEK-293T) (PSI 1-6); higher = more stable
Conditions: c terminus: a fixed tail appended
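Note: lentivirally expressed fusions sorted by FACS into six bins by GFP to DsRed ratio, PSI derived from sequencing read proportions per bin multiplied by bin number.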

Protein stability index: each site, then its substitutions
L10: S 1.53, K 1.73, H 2.09, G 2, C 1.98, D 2.52, A 1.76, E 2.17, V 1.52, T 1.96, I 2.05, N 1.99, W 1.35, Y 1.66, F 1.85, M 1.83, P 1.33, Q 3.24, R 4.36
F15: E 2.7, C 1.77, M 1.62, G 1.58, L 2, H 1.73, D 2.78, K 1.58, A 1.82, I 1.94
G9: D 3.04, T 1.25, Y 2.75, S 1.98, F 1.94, V 1.83, W 2.24, H 2, N 1.46, M 2.12, K 2.04, I 1.83, Q 2.07, A 2.27, R 2.97, E 1.99, C 1.89, L 1.89
W1: Y 2.37, C 1.82, G 1.91, Q 1.85, I 2.44, F 1.71, H 2.1, D 2.04, T 2.75, S 1.58, K 1.63, A 1.91, M 1.88, V 2.18, N 2.35, R 2.01, P 2.13, E 1.58, L 2.24
R5: P 2.2, A 1.04, Q 2.21, T 3.62, H 3.39, C 1.52, W 2.1, F 2.14, K 1.52, M 2.47, E 2.03, S 2.07, Y 2.77, N 2.12, G 2.29, D 1.96
L3: G 1.76, C 3.54, S 1.66, D 2.93, W 1.73, E 1.57, Y 2.06, H 2.09, F 2.74, A 1.73, V 1.52, T 2.36, M 2.22, K 1.71, R 1.71, Q 2.05, I 2.59, N 2.1, P 2.27
M2: I 1.64, Y 1.99, H 1.7, R 1.9, V 1.85, T 1.94, L 1.97, S 1.52, D 1.58, P 2.23, F 1.73, K 1.78, W 1.75, G 1.46, E 2.08, N 2.18, A 1.74, Q 1.77, C 1.49
F14: D 3.4, I 2.96, P 2.09, H 2, S 2.82, Q 3.11, Y 1.47, E 3.11, G 2.11, M 1.41, L 1.73, T 2.46, K 2.49, W 1.82, N 2.85, V 1.69, R 1.51, C 2.35, A 3.09
T4: Q 2.35, A 1.28, W 1.89, S 1.62, D 1.66, P 1.7, K 2.13, R 1.59, V 1.92, G 1.63, E 1.1, H 1.6, L 2.77, C 1.8, N 1.99, F 2.31, M 1.69, I 2.3, Y 1.41
S12: L 1.66, E 2.95, D 1.28, Y 1.25, I 1.61, K 1.86, F 1.9, M 1.67, H 1.94, G 1.75, N 2.05, V 1.67, T 1.84, W 2.76, C 1.88, R 2.57, P 3.09, A 2.05, Q 2.38
F13: T 2.69, W 1.67, R 2.44, P 1.95, I 2.11, L 2.65, E 4.58, G 2.25, H 3.2, Y 1.95, Q 1.78, M 2.13, K 2.38, V 3.35, C 2.02, A 3.27
F8: S 1.84, A 1.74, Y 1.84, T 3.12, M 1.94, G 1.18, R 2.31, W 1.88, Q 2.11, P 1.64, H 2.16, D 2.31, L 2.04, K 1.67, N 1.73, I 1.5, C 1.67, V 2.14, E 1.64
Q7: E 1.21, G 1.78, L 1.94, D 2.01, S 1.52, M 3.42, Y 2.28, K 1.8, F 1.47, C 1.82, H 2.53, I 1.61, R 1.7, N 2.23, P 1.45, V 3.1, A 2.49, W 1.86, T 2.17
K6: L 3.1, Q 2.48, F 1.79, M 2.07, R 1.88, E 2.56, C 2.16, N 2.32, V 3.54, H 3.26, P 1.8, S 2.85, Y 3.86, D 1.18, T 2.08
L11: F 1.72, D 2.23, I 2.31, W 1.72, Y 2.31, K 1.34, N 3.38, S 1.62, E 2.43, A 2.01, Q 1.67, T 1.95, R 1.51, G 1.96, P 1.57, V 2.15, C 1.48, M 2.52

Variants of: B2
Experiment: as above
Conditions: c terminus: a fixed tail appended

Protein stability index of substitutions, site by site:
A16: M 1.61, I 2.69, Y 2.9, E 1.93
Q24: A 1.9, V 1.7, F 3.46
T17: I 1.55, K 1.72
A4: L 1.17, S 2.74, D 1.59
R23: E 1.54, Q 2.43
R7: V 1.73, A 1.74, M 2.13, S 1.4, E 2.04, C 3.77
F1: S 3.33
R19: E 1.7, S 1.92, K 3.11, W 1.3
C21: F 1.97
H2: W 1.26
G22: N 1.56, E 1.93, F 1.95, Y 2.12
A6: G 2.54, Q 1.8, R 1.77, P 1.93, W 1.36, F 1.68, E 2.36
L20: S 2.22, P 2.23, Q 1.18
L3: P 3.45, H 1.71, A 1.61, C 1.71, D 2.5
A8: R 1.3, W 3.08, F 2.6
Q14: S 1.48, D 1.99, C 2.11
H10: C 2.01, D 1.27, P 2.05, L 1.7
P12: Y 1.47
N13: D 1.43, Q 1.98
Y15: V 1.57
P5: T 2.32, N 1.84, V 1.96
H11: Q 1.29, G 2.01
C18: L 1.42, W 1.97, N 3.56, V 2.25, Q 2.87
